Laboratory results reported in patent US20190055322A1 (Ablynx, published 2019).

B1: Nanobody 11B09 (VHH)
VHH: EVQLVESGGGLVQAGGSLRLSCAASRLTFNHYNMGWFRQAPGKERERVAEVTWSGDKIYYVDSVKGRFTISRDNTPNPVYLYLQMNSLKPEDTAVYYCATAPRGLPYANGYWGQGTQVTVSS
B2: Nanobody 7C10 (VHH)
VHH: EVQLVESGGGLVQAGGSLRLSCTASGRTLSSYTMGWFRQAPGTEREFVAAMTRSGFNTYYADSVKGRFTISRDSTENTMALQMSSLKPEDTAVYYCTAGRGLTSYRADYWGQGTLVTVSS
B3: Nanobody 12B02 (VHH)
VHH: EVQLVESGGGLVQPGGSLRLSCAASGFSLGVFAIGWFRQAPGKEREGVSCIDSSDGRTTYADSVKGRFTISRDNAKNTVYLQMNSLKPEDTAVYYCATDIETDVCSGAGWGFWGQGTQVTVSS
B4: Nanobody 3B11 (VHH)
VHH: EVQLVESGGGLVQAGGSLRLSCAASGFTFDDYVIGWFRQAPGKEREGVSCISRLDGRTYYTDSVKGRFTISSDNAKNTVYLQMNSLKPEDTAVYYCALEPRYTGDYYPVHPELYDYWGQGTQVTVSS
B5: Nanobody 10C05 (VHH)
VHH: EVQLVESGGGLVQPGGSLRLSCAASGSIFSINTMGWYRQAPGKQRDLVASITMNQVPNYADSVQGRFTISRDNVRNTVHLQMNAVKPEDTADYFCNAWVRSSGASPYTNYWGQGTQVTVSS
B6: Nanobody 4C03 (VHH)
VHH: EVQLVESGGGLVQAGGSLRLSCVISASTVRNYDMGWFRQAPGKEREFVAAIDWSGGSTRYADSVKGRFTVSRDNAKNTVYLQMNSLKPEDTAVYYCVAAGFYNNYLRTAPNDWNYWGQGTLVTVSS
B7: Nanobody 2B02 (VHH)
VHH: EVQLVESGGGLVQPGDSLRLSCAASGRILSINNMVWYRQAPGKQRELVAHITSSGSTGYADSVKGRFTISRDNAKNTFYLQMTNLNPEDTAVYYCNCWVSSDSNAPLKNYWGQGTQVTVSS
B8: Nanobody 14B10 (VHH)
VHH: EVQLVESGGGLVQPGGSLRLSCAASGRIFSINNMGWYHQAPGKQRELVATITMNGITTYADSVKGRFTISRDNAKNTVYLQMNSLKPEDTAVYYCSCWVRSSGGDPYRDYWGQGTQVTVSS
B9: Nanobody 2G09 (VHH)
VHH: EVQLVESGGGLVQPGGSLRLSCAASGSFGDNYELYAMTWFRQAPGERRDFVASVTGDGSTSYADSVKDRFTISRDNAKKLMYLQMNSLKPEDTAVYYCRLLNYWGQGTLVTVSS

What was measured:
[1] = molecular target: T1, PcrV of P. aeruginosa strain PA103 (on TTSS-induced bacteria) (Pseudomonas aeruginosa strain PA103); assay: cell-based or functional assay
[2] = molecular target: T2, recombinant PcrV protein (rPcrV), strain PAO1, amino acid residues 1-294, C-terminal His6 (Pseudomonas aeruginosa strain PAO1); assay: SPR ProteOn, periplasmic extract on immobilised rPcrV
[3] = molecular target: T1, PcrV of P. aeruginosa strain PA103 (on …); assay: cell-based or functional assay; remark: listed apart in the source
[4] = molecular target: GST-PcrV (strain PAO1, amino acid residues 1-294) (Pseudomonas aeruginosa strain PAO1); assay: SPR Biacore T100, GST-PcrV immobilised
[5] = molecular target: T2, recombinant PcrV protein (rPcrV), …; assay: ELISA, periplasmic extract on biotinylated rPcrV
Wherever cytotox assay (% inhibition), P3X63, PA103 is given: test concentration or dose not given here.

Binder | cytotox assay (% inhibition), P3X63, PA103 [1] | koff [2] | % inhibition, P3X63 cytotoxicity assay, MOI 3 [3] | IC50 (nM), P3X63 cytotoxicity assay, MOI 3 [3] | Kd [4] | koff [4] | kon [4] | binding ELISA (OD 450 nm) [5] | % inhibition, P3X63 cytotoxicity assay, MOI 4 [3] | IC50 (nM), P3X63 cytotoxicity assay, MOI 4 [3] | % inhibition, P3X63 cytotoxicity assay, MOI 1.5 [3] | IC50 (nM), P3X63 cytotoxicity assay, MOI 1.5 [3]
B1 | 37% | 0.0048 s⁻¹ | 100% | 100 nM | – | – | – | – | – | – | – | –
B2 | 58% | 0.00082 s⁻¹ | – | – | 2 nM | 0.0018 s⁻¹ | 1.2e+06 M⁻¹ s⁻¹ | 2.55 OD 450 nm | 100% | 42 nM | – | –
B3 | 14% | 4.4e-05 s⁻¹ | – | – | – | – | – | – | – | – | – | –
B4 | 26% | 0.0027 s⁻¹ | – | – | – | – | – | 0.55 OD 450 nm | 54% | 1140 nM | – | –
B5 | 25% | 0.0006 s⁻¹ | 100% | > 1000 nM | – | – | – | – | – | – | – | –
B6 | 22% | 0.0068 s⁻¹ | – | – | – | – | – | 0.89 OD 450 nm | – | – | > 20% | 8890 nM
B7 | 46% | 0.00037 s⁻¹ | – | – | – | – | – | 2.4 OD 450 nm | 100% | 1730 nM | – | –
B8 | 20% | 0.00092 s⁻¹ | > 70% | > 3000 nM | – | – | – | – | – | – | – | –
B9 | 45% | 0.001 s⁻¹ | – | – | – | – | – | 2.37 OD 450 nm | 55% | 4 nM | – | –
